# Measured values published in IntAct's records for PubMed 29892012.
# B1: Abl interactor 2 (Homo sapiens), Q9NYB9 (parent)
# chain: MAELQMLLEEEIPGGRRALFDSYTNLERVADYCENNYIQSADKQRALEETKAYTTQSLASVAYLINTLANNVLQMLDIQASQLRRMESSINHISQTVDIHKEKVARREIGILTTNKNTSRTHKIIAPANLERPVRYIRKPIDYTILDDIGHGVKWLLRFKVSTQNMKMGGLPRTTPPTQKPPSPPMSGKGTLGRHSPYRTLEPVRPPVVPNDYVPSPTRNMAPSQQSPVRTASVNQRNRTYSSSGSSGGSHPSSRSSSRENSGSGSVGVPIAVPTPSPPSVFPAPAGSAGTPPLPATSASAPAPLVPATVPSSTAPNAAAGGAPNLADGFTSPTPPVVSSTPPTGHPVQFYSMNRPASRHTPPTIGGSLPYRRPPSITSQTSLQNQMNGGPFYSQNPVSDTPPPPPPVEEPVFDESPPPPPPPEDYEEEEAAVVEYSDPYAEEDPPWAPRSYLEKVVAIYDYTKDKEDELSFQEGAIIYVIKKNDDGWYEGVMNGVTGLFPGNYVESIMHYSE
# partner: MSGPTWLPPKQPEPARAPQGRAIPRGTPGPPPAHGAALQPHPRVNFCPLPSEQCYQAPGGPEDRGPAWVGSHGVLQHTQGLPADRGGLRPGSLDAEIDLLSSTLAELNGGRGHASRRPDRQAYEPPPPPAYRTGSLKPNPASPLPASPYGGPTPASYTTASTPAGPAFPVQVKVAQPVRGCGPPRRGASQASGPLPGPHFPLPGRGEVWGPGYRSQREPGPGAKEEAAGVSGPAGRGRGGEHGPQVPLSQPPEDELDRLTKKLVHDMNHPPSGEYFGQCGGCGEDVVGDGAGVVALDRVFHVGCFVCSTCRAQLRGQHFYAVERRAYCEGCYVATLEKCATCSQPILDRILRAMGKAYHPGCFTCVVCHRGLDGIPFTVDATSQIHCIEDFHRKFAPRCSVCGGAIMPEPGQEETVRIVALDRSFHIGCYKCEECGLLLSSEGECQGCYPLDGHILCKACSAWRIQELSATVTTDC
# B2: ADP/ATP translocase 3 (Homo sapiens), P12236 (parent)
# chain: MTEQAISFAKDFLAGGIAAAISKTAVAPIERVKLLLQVQHASKQIAADKQYKGIVDCIVRIPKEQGVLSFWRGNLANVIRYFPTQALNFAFKDKYKQIFLGGVDKHTQFWRYFAGNLASGGAAGATSLCFVYPLDFARTRLAADVGKSGTEREFRGLGDCLVKITKSDGIRGLYQGFSVSVQGIIIYRAAYFGVYDTAKGMLPDPKNTHIVVSWMIAQTVTAVAGVVSYPFDTVRRRMMMQSGRKGADIMYTGTVDCWRKIFRDEGGKAFFKGAWSNVLRGMGGAFVLVLYDELKKVI
# B3: Methanethiol oxidase (Homo sapiens), Q13228 (parent)
# chain: MATKCGNCGPGYSTPLEAMKGPREEIVYLPCIYRNTGTEAPDYLATVDVDPKSPQYCQVIHRLPMPNLKDELHHSGWNTCSSCFGDSTKSRTKLVLPSLISSRIYVVDVGSEPRAPKLHKVIEPKDIHAKCELAFLHTSHCLASGEVMISSLGDVKGNGKGGFVLLDGETFEVKGTWERPGGAAPLGYDFWYQPRHNVMISTEWAAPNVLRDGFNPADVEAGLYGSHLYVWDWQRHEIVQTLSLKDGLIPLEIRFLHNPDAAQGFVGCALSSTIQRFYKNEGGTWSVEKVIQVPPKKVKGWLLPEMPGLITDILLSLDDRFLYFSNWLHGDLRQYDISDPQRPRLTGQLFLGGSIVKGGPVQVLEDEELKSQPEPLVVKGKRVAGGPQMIQLSLDGKRLYITTSLYSAWDKQFYPDLIREGSVMLQVDVDTVKGGLKLNPNFLVDFGKEPLGPALAHELRYPGGDCSSDIWI
# partner: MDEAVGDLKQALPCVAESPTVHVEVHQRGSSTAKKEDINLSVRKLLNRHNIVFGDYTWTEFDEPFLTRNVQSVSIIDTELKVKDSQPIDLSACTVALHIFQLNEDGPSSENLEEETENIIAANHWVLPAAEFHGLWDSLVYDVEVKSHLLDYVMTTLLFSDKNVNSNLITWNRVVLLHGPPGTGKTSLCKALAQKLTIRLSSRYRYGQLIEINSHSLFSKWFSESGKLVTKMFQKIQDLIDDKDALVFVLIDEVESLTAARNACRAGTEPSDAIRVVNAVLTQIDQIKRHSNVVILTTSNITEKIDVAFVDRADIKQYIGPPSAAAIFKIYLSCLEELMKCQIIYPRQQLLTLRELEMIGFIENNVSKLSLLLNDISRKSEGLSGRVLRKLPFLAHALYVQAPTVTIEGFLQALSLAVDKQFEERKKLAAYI
# B4: Rho guanine nucleotide exchange factor 3 (Homo sapiens), Q9NR81 (parent)
# chain: MVAKDYPFYLTVKRANCSLELPPASGPAKDAEEPSNKRVKPLSRVTSLANLIPPVKATPLKRFSQTLQRSISFRSESRPDILAPRPWSRNAAPSSTKRRDSKLWSETFDVCVNQMLTSKEIKRQEAIFELSQGEEDLIEDLKLAKKAYHDPMLKLSIMTEQELNQIFGTLDSLIPLHEELLSQLRDVRKPDGSTEHVGPILVGWLPCLSSYDSYCSNQVAAKALLDHKKQDHRVQDFLQRCLESPFSRKLDLWNFLDIPRSRLVKYPLLLREILRHTPNDNPDQQHLEEAINIIQGIVAEINTKTGESECRYYKERLLYLEEGQKDSLIDSSRVLCCHGELKNNRGVKLHVFLFQEVLVITRAVTHNEQLCYQLYRQPIPVKDLLLEDLQDGEVRLGGSLRGAFSNNERIKNFFRVSFKNGSQSQTHSLQANDTFNKQQWLNCIRQAKETVLCAAGQAGVLDSEGSFLNPTTGSRELQGETKLEQMDQSDSESDCSMDTSEVSLDCERMEQTDSSCGNSRHGESNV
# partner: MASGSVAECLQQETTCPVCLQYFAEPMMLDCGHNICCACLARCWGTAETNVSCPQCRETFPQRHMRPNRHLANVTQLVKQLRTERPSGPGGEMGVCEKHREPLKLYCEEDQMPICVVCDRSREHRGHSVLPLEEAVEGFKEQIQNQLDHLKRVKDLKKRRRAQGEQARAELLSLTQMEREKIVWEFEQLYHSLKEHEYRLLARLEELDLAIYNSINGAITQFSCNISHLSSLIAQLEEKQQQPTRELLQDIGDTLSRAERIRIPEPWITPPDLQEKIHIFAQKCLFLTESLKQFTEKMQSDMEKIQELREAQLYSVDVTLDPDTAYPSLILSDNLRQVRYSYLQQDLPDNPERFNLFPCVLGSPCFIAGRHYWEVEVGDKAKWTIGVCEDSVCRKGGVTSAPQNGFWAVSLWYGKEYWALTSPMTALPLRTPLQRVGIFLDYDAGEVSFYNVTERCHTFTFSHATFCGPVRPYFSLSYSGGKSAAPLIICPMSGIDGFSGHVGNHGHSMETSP
# B5: Cilium assembly protein DZIP1L (Homo sapiens), Q8IYY4 (parent)
# chain: MQSPAATAEGLSGPLFGAYTFPTFKFQPRHDSMDWRRISTLDVDRVARELDVATLQENIAGITFCNLDREVCSRCGQPVDPALLKVLRLAQLIIEYLLHCQDCLSASVAQLEARLQTSLGQQQRGQQELGRQADELKGVREESRRRRKMISTLQQLLMQTGTHSYHTCHLCDKTFMNATFLRGHIQRRHAGVAEGGKQKKQEQPVEEVLEELRAKLKWTQGELEAQREAERQRQLQEAELIHQREIEAKKEFDKWKEQEWTKLYGEIDKLKKLFWDEFKNVAKQNSTLEEKLRALQSHSVMESKLGSLRDEESEEWLRQARELQALREKTEIQKTEWKRKVKELHEEHMAEKKELQEENQRLQASLSQDQKKAAAQSQCQISTLRAQLQEQARIIASQEEMIQSLSLRKVEGIHKVPKAVDTEEDSPEEEMEDSQDEQHKVLAALRRNPTLLKHFRPILEDTLEEKLESMGIRKDAKGISIQTLRHLESLLRVQREQKARKFSEFLSLRGKLVKEVTSRAKERQENGAVVSQPDGQPSVKSQQSTLVTREAQPKTRTLQVALPSTPAEPPPPTRQSHGSHGSSLTQVSAPAPRPGLHGPSSTPPSSGPGMSTPPFSSEEDSEGDRVQRVSLQPPKVPSRMVPRPKDDWDWSDTETSEENAQPPGQGSGTLVQSMVKNLEKQLEAPAKKPAGGVSLFFMPNAGPQRAATPGRKPQLSEDESDLEISSLEDLPLDLDQREKPKPLSRSKLPEKFGTGPQSSGQPRVPAW
# Variants of: B1
# Conditions: with trip6_human TRIP6, Q15654
row,effect of a mutation on the interaction,Variant
1,with no effect,R373C

# Variants of: B1
# Conditions: with trip6_human TRIP6, Q15654
# Remark: another data set of the same source
row,effect of a mutation on the interaction,Variant
1,with no effect,E202K

# Variants of: B2
# Conditions: with ap2b1_human AP2B1, P63010
# Sequence of ap2b1_human AP2B1, P63010 (P63010 whole entry): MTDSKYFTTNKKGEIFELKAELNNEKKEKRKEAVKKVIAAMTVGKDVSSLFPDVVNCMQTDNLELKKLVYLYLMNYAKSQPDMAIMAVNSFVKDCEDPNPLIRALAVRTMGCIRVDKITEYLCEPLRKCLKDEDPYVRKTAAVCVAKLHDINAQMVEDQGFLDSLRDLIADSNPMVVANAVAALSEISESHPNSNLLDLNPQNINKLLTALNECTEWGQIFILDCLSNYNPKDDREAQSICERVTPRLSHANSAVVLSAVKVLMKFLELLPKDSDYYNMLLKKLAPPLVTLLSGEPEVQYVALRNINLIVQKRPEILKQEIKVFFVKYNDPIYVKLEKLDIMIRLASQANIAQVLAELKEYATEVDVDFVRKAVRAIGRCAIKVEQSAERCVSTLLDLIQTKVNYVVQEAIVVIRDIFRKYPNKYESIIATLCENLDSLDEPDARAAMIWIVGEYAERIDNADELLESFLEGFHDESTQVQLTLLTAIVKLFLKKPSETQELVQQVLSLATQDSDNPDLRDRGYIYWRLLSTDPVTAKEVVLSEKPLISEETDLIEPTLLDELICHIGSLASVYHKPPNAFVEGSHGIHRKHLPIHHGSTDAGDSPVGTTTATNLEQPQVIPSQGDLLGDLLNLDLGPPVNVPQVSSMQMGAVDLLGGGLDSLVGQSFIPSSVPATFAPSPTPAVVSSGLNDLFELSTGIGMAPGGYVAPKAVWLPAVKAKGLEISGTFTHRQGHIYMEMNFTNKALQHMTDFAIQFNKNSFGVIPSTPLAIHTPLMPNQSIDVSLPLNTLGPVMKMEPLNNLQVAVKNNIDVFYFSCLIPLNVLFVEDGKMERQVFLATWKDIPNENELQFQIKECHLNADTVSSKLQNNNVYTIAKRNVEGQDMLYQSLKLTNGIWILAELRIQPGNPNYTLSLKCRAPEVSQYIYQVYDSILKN
row,effect of a mutation on the interaction,Variant
1,with no effect,T221M

# Variants of: B3
# Conditions: with pch2_human TRIP13, Q15645
row,effect of a mutation on the interaction,Variant
1,with no effect,R398C

# Variants of: B4
# Conditions: with tri27_human TRIM27, P14373
row,effect of a mutation on the interaction,Variant
1,with no effect,P34S

# Variants of: B5
# Conditions: with cep76_human CEP76, Q8TAP6
# Sequence of cep76_human CEP76, Q8TAP6 (Q8TAP6 whole entry): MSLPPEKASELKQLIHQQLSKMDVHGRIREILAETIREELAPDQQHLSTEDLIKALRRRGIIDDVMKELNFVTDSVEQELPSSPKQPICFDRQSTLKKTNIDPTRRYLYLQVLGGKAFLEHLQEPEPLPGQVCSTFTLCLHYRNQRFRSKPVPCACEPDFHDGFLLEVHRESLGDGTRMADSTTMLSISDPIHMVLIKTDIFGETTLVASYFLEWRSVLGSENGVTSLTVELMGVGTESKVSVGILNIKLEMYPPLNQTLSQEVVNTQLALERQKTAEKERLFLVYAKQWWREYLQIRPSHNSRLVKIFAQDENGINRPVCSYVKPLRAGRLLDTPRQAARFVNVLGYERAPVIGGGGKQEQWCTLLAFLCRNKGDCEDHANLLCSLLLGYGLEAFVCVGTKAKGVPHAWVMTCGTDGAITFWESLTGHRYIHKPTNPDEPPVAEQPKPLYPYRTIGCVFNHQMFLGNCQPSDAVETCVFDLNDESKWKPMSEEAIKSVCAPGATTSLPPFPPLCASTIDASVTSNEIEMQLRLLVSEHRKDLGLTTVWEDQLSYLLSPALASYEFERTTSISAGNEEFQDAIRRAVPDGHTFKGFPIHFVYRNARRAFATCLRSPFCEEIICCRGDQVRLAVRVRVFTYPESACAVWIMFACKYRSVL
row,effect of a mutation on the interaction,Variant
1,with no effect,R643W
